This note sets out measurements from publication PMC3925836 (Advanced healthcare materials, 2013).

In one assay the target is T1, GPRP-A80-I60-C.
T1 chain: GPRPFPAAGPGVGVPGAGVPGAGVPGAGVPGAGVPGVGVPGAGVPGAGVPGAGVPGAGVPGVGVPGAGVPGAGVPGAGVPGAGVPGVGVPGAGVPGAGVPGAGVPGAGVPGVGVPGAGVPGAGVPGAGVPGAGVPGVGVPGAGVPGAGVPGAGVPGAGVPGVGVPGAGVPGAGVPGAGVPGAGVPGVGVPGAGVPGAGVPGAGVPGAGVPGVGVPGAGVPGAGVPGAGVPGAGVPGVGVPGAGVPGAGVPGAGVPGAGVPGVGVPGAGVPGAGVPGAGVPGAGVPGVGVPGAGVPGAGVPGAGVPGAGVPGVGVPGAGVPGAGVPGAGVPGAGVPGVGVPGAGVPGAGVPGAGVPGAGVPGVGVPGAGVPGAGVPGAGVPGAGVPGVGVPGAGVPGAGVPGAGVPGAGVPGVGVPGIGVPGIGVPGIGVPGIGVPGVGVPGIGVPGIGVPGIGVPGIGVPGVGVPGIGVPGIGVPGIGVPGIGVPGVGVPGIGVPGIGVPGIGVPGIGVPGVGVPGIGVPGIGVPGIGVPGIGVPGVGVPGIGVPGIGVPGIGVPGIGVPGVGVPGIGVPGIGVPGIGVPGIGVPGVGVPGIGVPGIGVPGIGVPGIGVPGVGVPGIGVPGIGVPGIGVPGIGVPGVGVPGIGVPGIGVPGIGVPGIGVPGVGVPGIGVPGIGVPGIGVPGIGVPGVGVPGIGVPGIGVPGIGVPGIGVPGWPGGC
Nature of the assay: ELISA. For orientation: ELISA stands for enzyme-linked immunosorbent assay.

The next assay addresses T2, GPRP-P40-I60-C.
T2 chain: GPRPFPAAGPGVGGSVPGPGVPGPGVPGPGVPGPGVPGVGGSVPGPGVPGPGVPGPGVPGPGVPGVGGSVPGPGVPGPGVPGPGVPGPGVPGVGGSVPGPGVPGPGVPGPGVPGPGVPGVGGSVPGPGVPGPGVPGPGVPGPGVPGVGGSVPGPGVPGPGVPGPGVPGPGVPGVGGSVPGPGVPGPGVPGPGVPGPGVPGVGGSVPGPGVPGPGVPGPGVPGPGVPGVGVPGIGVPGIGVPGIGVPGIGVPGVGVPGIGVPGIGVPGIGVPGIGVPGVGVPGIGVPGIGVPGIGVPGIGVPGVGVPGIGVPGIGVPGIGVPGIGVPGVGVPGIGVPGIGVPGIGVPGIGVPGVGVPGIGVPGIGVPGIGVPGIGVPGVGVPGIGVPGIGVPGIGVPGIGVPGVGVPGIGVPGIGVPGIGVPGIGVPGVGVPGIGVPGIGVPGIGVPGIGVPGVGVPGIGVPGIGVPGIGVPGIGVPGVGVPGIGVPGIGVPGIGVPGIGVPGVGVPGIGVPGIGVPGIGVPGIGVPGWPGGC
The assay can be described thus: ELISA.

B1: fibrinogen, P02671 36-866; P02675 45-491; P02679 27-453 (complex)
chain 1: ADSGEGDFLAEGGGVRGPRVVERHQSACKDSDWPFCSDEDWNYKCPSGCRMKGLIDEVNQDFTNRINKLKNSLFEYQKNNKDSHSLTTNIMEILRGDFSSANNRDNTYNRVSEDLRSRIEVLKRKVIEKVQHIQLLQKNVRAQLVDMKRLEVDIDIKIRSCRGSCSRALAREVDLKDYEDQQKQLEQVIAKDLLPSRDRQHLPLIKMKPVPDLVPGNFKSQLQKVPPEWKALTDMPQMRMELERPGGNEITRGGSTSYGTGSETESPRNPSSAGSWNSGSSGPGSTGNRNPGSSGTGGTATWKPGSSGPGSTGSWNSGSSGTGSTGNQNPGSPRPGSTGTWNPGSSERGSAGHWTSESSVSGSTGQWHSESGSFRPDSPGSGNARPNNPDWGTFEEVSGNVSPGTRREYHTEKLVTSKGDKELRTGKEKVTSGSTTTTRRSCSKTVTKTVIGPDGHKEVTKEVVTSEDGSDCPEAMDLGTLSGIGTLDGFRHRHPDEAAFFDTASTGKTFPGFFSPMLGEFVSETESRGSESGIFTNTKESSSHHPGIAEFPSRGKSSSYSKQFTSSTSYNRGDSTFESKSYKMADEAGSEADHEGTHSTKRGHAKSRPV
chain 2: QGVNDNEEGFFSARGHRPLDKKREEAPSLRPAPPPISGGGYRARPAKAAATQKKVERKAPDAGGCLHADPDLGVLCPTGCQLQEALLQQERPIRNSVDELNNNVEAVSQTSSSSFQYMYLLKDLWQKRQKQVKDNENVVNEYSSELEKHQLYIDETVNSNIPTNLRVLRSILENLRSKIQKLESDVSAQMEYCRTPCTVSCNIPVVSGKECEEIIRKGGETSEMYLIQPDSSVKPYRVYCDMNTENGGWTVIQNRQDGSVDFGRKWDPYKQGFGNVATNTDGKNYCGLPGEYWLGNDKISQLTRMGPTELLIEMEDWKGDKVKAHYGGFTVQNEANKYQISVNKYRGTAGNALMDGASQLMGENRTMTIHNGMFFSTYDRDNDGWLTSDPRKQCSKEDGGGWWYNRCHAANPNGRYYWGGQYTWDMAKHGTDDGVVWMNWKGSWYSMRKMSMKIRPFFPQQ
chain 3: YVATRDNCCILDERFGSYCPTTCGIADFLSTYQTKVDKDLQSLEDILHQVENKTSEVKQLIKAIQLTYNPDESSKPNMIDAATLKSRKMLEEIMKYEASILTHDSSIRYLQEIYNSNNQKIVNLKEKVAQLEAQCQEPCKDTVQIHDITGKDCQDIANKGAKQSGLYFIKPLKANQQFLVYCEIDGSGNGWTVFQKRLDGSVDFKKNWIQYKEGFGHLSPTGTTEFWLGNEKIHLISTQSAIPYALRVELEDWNGRTSTADYAMFKVGPEADKYRLTYAYFAGGDAGDAFDGFDFGDDPSDKFFTSHNGMQFSTWDNDNDKFEGNCAEQDGSGWWMNKCHAGHLNGVYYQGGTYSKASTPNGYDNGIIWATWKTRWYSMKKTTMKIIPFNRLTIGEGQQHHLGGAKQAGDV
modifications: not checked
Regarding B1, the % normalized signal (GPRPFPAC-coated wells = 100 %), saturated wells with GPRP-A80-I60-C and with GPRP-P40-I60-C was over 100% in each case.
